Assay results reported in patent publication US20260055171A1 (Regeneron, published 2026).

Tests used:
hCD16a-Biotin = target: T1, hCD16a-Biotin (human, UniProt P08637 17-208, biotin (site not stated)); assay: binding kinetics on hCD16a-Biotin, signal (nm) against time (sec); platform not named
T1 construct: also called CD16 (FcγRIIIa); CD16a (FcGRIIIa)
Method: (§1) Binding affinity of VEGF antagonists to Fc receptors CD16 (FcγRIIIa), CD64 (FcγRI), and FcRn was evaluated using hCD16-biotin, hCD64-biotin, and hFcRn-β2M-biotin.
(§2) For FcγRIIIa and FcγRI binding assessments, each construct was diluted 1:5 from a starting concentration of 50 nM, except Hex-REGN3 (IgG1) Mut1 PVA/P329A, which was evaluated only at the highest concentration. For FcRn assessments, each construct was diluted 1:5 from a starting concentration of 200 nM, except Hex-REGN3 (IgG1) Mut1 PVA/P329A, which was evaluated only at the highest concentration.

hCD64-Biotin [1] = target: T2, hCD64-Biotin (human, UniProt P12314 16-288, limits assumed, biotin (site not stated)); assay: binding kinetics on hCD64-Biotin, signal (nm) against time (sec); construct diluted 1:5 from 50 nM, concentrations not labelled on the sheet; platform not named
T2 construct: also called CD64 (FcγRI); CD64 (FcGRI)
Method: as §1, §2

hFcRn-β2M-Biotin [2] = target: T3, hFcRn-β2M-Biotin (human, UniProt P55899 24-297; P61769 21-119, biotin (site and chain not stated)); assay: binding kinetics on hFcRn-β2M-Biotin, signal (nm) against time (sec); construct diluted 1:5 from 200 nM, concentrations not labelled on the sheet; platform not named
Method: as §1, §2

hCD64-Biotin [3] = target: T2, hCD64-Biotin; assay: binding kinetics on hCD64-Biotin, instrument not named
Method: as §1, §2

hFcRn-β2M-Biotin [4] = target: T3, hFcRn-β2M-Biotin; assay: binding kinetics on hFcRn-β2M-Biotin, instrument not named
Method: as §1, §2

hCD64-Biotin [5] = target: T2, hCD64-Biotin; assay: binding kinetics on hCD64-Biotin, signal (nm) against time (sec); platform not named
Method: as §1, §2

T3 sequence (P55899 24-297 limits assumed, chain 1 of 2): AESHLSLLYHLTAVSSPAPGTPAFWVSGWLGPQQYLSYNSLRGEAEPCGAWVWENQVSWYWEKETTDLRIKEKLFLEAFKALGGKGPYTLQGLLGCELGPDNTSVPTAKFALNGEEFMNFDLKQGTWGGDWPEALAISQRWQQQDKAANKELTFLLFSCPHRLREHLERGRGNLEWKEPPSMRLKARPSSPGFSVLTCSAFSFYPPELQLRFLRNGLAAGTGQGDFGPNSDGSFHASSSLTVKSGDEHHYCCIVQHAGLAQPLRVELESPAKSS
T3 sequence (P61769 21-119 limits assumed, chain 2 of 2): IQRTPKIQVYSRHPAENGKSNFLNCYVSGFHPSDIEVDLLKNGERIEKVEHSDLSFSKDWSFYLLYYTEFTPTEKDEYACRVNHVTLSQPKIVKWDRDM
T1 sequence (P08637 17-208 limits assumed): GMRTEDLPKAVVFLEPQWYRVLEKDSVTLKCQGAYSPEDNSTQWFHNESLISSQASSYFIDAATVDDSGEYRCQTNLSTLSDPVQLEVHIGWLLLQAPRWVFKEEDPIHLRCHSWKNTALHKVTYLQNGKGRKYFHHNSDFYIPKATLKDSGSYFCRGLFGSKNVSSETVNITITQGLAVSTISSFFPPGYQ
T2 sequence (P12314 16-288 limits assumed): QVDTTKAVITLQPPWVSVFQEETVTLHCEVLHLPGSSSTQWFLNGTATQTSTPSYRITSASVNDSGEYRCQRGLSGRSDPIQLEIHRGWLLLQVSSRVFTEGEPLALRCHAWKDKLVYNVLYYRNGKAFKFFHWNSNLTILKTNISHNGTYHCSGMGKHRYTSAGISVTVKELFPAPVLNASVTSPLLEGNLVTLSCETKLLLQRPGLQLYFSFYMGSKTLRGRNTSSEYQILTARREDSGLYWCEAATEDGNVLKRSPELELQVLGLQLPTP

Binder	binding result (hCD16a-Biotin)	binding result (hCD64-Biotin [1])	binding result (hFcRn-β2M-Biotin [2])	Kd (hCD64-Biotin [3]) [nM]	koff (hCD64-Biotin [3]) [s⁻¹]	kon (hCD64-Biotin [3]) [M⁻¹ s⁻¹]	Kd (hFcRn-β2M-Biotin [4]) [nM]	koff (hFcRn-β2M-Biotin [4]) [s⁻¹]	kon (hFcRn-β2M-Biotin [4]) [M⁻¹ s⁻¹]	binding result (hCD64-Biotin [5])
Hex-REGN3 (IgG1) Mut2 LALAPG (Fc fusion, Hexameric VEGF antagonist designed as six dimers) SDTGRPFVEMYSEIPEIIHMTEGRELVIPCRVTSPNITVTLKKFPLDTLIPDGKRIIWDSRKGFIISNATYKEIGLLTCEATVNGHLYKTNYLTHRQTNTIIDVVLSPSHGIELSVGEKLVLNCTARTELNVGIDFNWEYPSSKHQHKKLVNRDLKTQSGSEMKKFLSTLTIDGVTRSDQGLYTCAASSGLMTKKNSTFVRVHEKDKTHTCPPCPAPEAAGGPSVFLFPPKPKDTLMCSRTPEVTCVVVDVSHEAPEVKFNWYVDGVEVHNAKTKPREEQYNSTYRVVSVLTVLHQDWLNGKEYKCKVSNKALGAGIEKTISKAKGQPREPQVYTLPPSRDELTKNQVSLTCLVKGFYPSDIAVEWESNGQPENNYKTTPPVLDSDGSFFLYSKLTVDKSRWQQGNVFSCSVMHEALHNHYTQKSLSLSPGKPTLYNVSLVMSDTAGTCY	no binding (tested: 50 nM (not printed on the sheet))	binds	binds	–	–	–	–	–	–	–
Hex-REGN3 (IgG1) Mut1 LALAPG (Fc fusion, Hexamer of six dimers (VEGFR1 domain 2 - VEGFR2 domain 3 - IgG1 Fc - IgM tailpiece); also called HEX-REGN3 (IgG1) LALAPG Mut1; hexameric Hex-REGN3) SDTGRPFVEMYSEIPEIIHMTEGRELVIPCRVTSPNITVTLKKFPLDTLIPDGKRIIWDSRKGFIISNATYKEIGLLTCEATVNGHLYKTNYLTHRQTNTIIDVVLSPSHGIELSVGEKLVLNCTARTELNVGIDFNWEYPSSKHQHKKLVNRDLKTQSGSEMKKFLSTLTIDGVTRSDQGLYTCAASSGLMTKKNSTFVRVHEKDKTHTCPPCPAPEAAGGPSVFLFPPKPKDTLMISRTPEVTCVVVDVSHEDPEVKFNWYVDGVEVHNAKTKPREEQYNSTYRVVSVLTVCHQDWLNGKEYKCKVSNKALGAPIEKTISKAKGQPREPQVYTLPPSREEMTKNQVSLTCLVKGFYPSDIAVEWESNGQPENNYKTTPPVLDSDGSFFLYSKLTVDKSRWQQGNVFSCSVMHEALHNHYTQKSLDKSTGKPTLYNVSLIMSDTGGTCY	no binding (tested: 50 nM (not printed on the sheet))	–	–	0.0638	0.000511	8.01e+06	< 0.001	< 1e-07	31000	–
Hex-REGN3 (IgG1) Mut1-V2 PVA/P329A (Fc fusion, Hexameric VEGF antagonist designed as six dimers; also called Hex-REGN3 (IgG1) Mut1 PVA/P329A) SDTGRPFVEMYSEIPEIIHMTEGRELVIPCRVTSPNITVTLKKFPLDTLIPDGKRIIWDSRKGFIISNATYKEIGLLTCEATVNGHLYKTNYLTHRQTNTIIDVVLSPSHGIELSVGEKLVLNCTARTELNVGIDFNWEYPSSKHQHKKLVNRDLKTQSGSEMKKFLSTLTIDGVTRSDQGLYTCAASSGLMTKKNSTFVRVHEKDKTHTCPPCPAPPVAGPSVFLFPPKPKDTLMISRTPEVTCVVVDVSHEDPEVKFNWYVDGVEVHNAKTKPREEQYNSTYRVVSVLTVCHQDWLNGKEYKCKVSNKALAAPIEKTISKAKGQPREPQVYTLPPSREEMTKNQVSLTCLVKGFYPSDIAVEWESNGQPENNYKTTPPVLDSDGSFFLYSKLTVDKSRWQQGNVFSCSVMHEALHNHYTQKSLDKSTGKPTLYNVSLVMSDTAGTCY	no binding (tested: 50 nM (not printed on the sheet))	–	–	–	–	–	–	–	–	no binding (tested: 50 nM (not printed on the sheet))
